Results published in publication PMC8909127 (Frontiers in Microbiology, 2022).
Values joined by “and” are separate entries in the source; they are usually repeats but may differ in a detail not shown here. Equal values may be shown once. No end group written: not given here.

T1: MPP5 PDZ (human, UniProt Q8N3R9 238-336)
T1 construct: PDZ domain of human MPP5 (PALS1), residues 238-336, numbering of the full-length human protein; […]; Labelled on amines with RED-NHS dye for MST; also called PALS1 PDZ; not shown: GST, N-terminal, cleaved
T1 sequence (looked up): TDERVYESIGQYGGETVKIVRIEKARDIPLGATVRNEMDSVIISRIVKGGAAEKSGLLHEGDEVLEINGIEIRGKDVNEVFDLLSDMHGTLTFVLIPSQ

T2: LNX2 PDZ2 (human, UniProt Q8N448 334-426)
T2 construct: second PDZ domain of human LNX2, residues 334-426, numbering of the full-length human protein; […]; Labelled on amines with RED-NHS dye for MST; also called LNX2-2; not shown: His tag, N-terminal, cleaved
T2 sequence (looked up): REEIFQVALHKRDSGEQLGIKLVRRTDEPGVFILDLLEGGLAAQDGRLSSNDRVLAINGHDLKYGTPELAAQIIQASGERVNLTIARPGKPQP

T3: MLLT4 PDZ (human, UniProt P55196 1002-1095)
T3 construct: PDZ domain of human MLLT4 (Afadin); the residues named in the structure (1014-1022, 1071) fit 1002-1095; also called Afadin PDZ; not shown: His tag, N-terminal, cleaved; MBP, N-terminal, cleaved
T3 sequence (looked up): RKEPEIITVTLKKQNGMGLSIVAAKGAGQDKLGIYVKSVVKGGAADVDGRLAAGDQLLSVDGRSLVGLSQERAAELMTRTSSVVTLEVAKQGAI

B1: MLLT4-PBM: MLLT4-PDZ prepared with an excess of protein E PBM peptide (protein)
chain: T3 sequence (looked up)
modifications: left off: His tag, N-terminal, cleaved | MBP, N-terminal, cleaved
notes: MLLT4-PDZ prepared with an excess of protein E PBM peptide
B2: C-terminal SARS-CoV-2-E PBM peptide (peptide)
peptide: NLNSSRVPDLLV
notes: also called SARS-CoV-2 WT; SARS-CoV-2 peptide E
B3: ZO-1 PDZ2 (domain or fragment, human, UniProt Q07157 184-264, looked up)
chain: PTKVTLVKSRKNEEYGLRLASHIFVKEISQDSLAARDGNIQEGDVVLKINGTVTENMSLTDAKTLIERSKGKLKMVVQRDE
notes: second PDZ domain of human ZO-1 (TJP1), residues 184-264, numbering of the full-length human protein; […]; Labelled on amines with RED-NHS dye for MST; also called TJP1 PDZ2; ZO-1-2
B4: ZO-1: PDZ2 domain of ZO-1, residues 184-264, at 1 mg/mL (protein)
chain: B3 chain
modifications: left off: His tag, N-terminal, state not stated
notes: PDZ2 domain of ZO-1, residues 184-264, at 1 mg/mL

What was measured:
GST-PDZ ZO1 = experiment: GST pull-down, GST-PDZ ZO1; type: binding, human; details: HEK293 cell lysates; 2 h at 4°C with glutathione resins; anti-GFP Western blot
Procedure: (§1) To investigate whether the five PDZ domains can interact with the full-length E protein and in a PBM-dependent manner, glutathione S-transferase (GST) pull-down assays were performed with the purified GST-tagged PDZ domains of ZO-1, LNX2, PARD3, MLLT4, and MPP5 and the lysates of HEK293 cells overexpressing constructs of GFP alone, GFP-tagged wild-type full-length E protein (GFP-E-WT), GFP-tagged full-length E protein with the PBM mutated with glycines (GFP-E-GGGG), and GFP-tagged cytoplasmic tail of protein E (last 12 residues; GFP-E last 12 aa) designated 1, 2, 3, and 4 in Figure 2 (Figure 2A). The GFP-tagged construct expression was assessed by examining the fluorescence emitted by the GFP by microscopy and by Western blot on the cell lysates using anti-GFP antibody (Figure 2B). GST alone was used as a negative control. We confirmed by using Ponceau S staining that equal amounts of GST-tagged protein constructs were bound to the GST resin (Figure 2C).
(§2) Glutathione S-transferase alone and its fusion with PDZ ZO1, PDZ LNX2, PDZ MLLT4, PDZ MPP5, and PDZ PARD3 are used as baits and were immobilized on glutathione beads and tested for their ability to pull down GFP alone, GFP-E-WT, GFP-E-GGGG, and GFP-E last 12 aa by Western blot using the anti-GFP antibody. After washing, identical amounts of beads were analyzed for the presence of GFP-tagged proteins. […]

GST-PDZ LNX2 = experiment: GST pull-down, GST-PDZ LNX2; type: binding, human; details: HEK293 cell lysates; 2 h at 4°C with glutathione resins; anti-GFP Western blot
Procedure: as §1, §2

GST-PDZ MLLT4 = experiment: GST pull-down, GST-PDZ MLLT4; type: binding, human; details: HEK293 cell lysates; 2 h at 4°C with glutathione resins; anti-GFP Western blot
Procedure: as §1, §2

GST-PDZ MPP5 = experiment: GST pull-down, GST-PDZ MPP5; type: binding, human; details: HEK293 cell lysates; 2 h at 4°C with glutathione resins; anti-GFP Western blot
Procedure: as §1, §2

GST-PDZ PARD3 = experiment: GST pull-down, GST-PDZ PARD3; type: binding, human; details: HEK293 cell lysates; 2 h at 4°C with glutathione resins; anti-GFP Western blot
Procedure: as §1, §2

GST alone = experiment: GST pull-down, GST alone (negative control); type: binding; details: GST alone as bait; HEK293 cell lysates; anti-GFP Western blot
Procedure: as §1, §2

[1] = Analytical ultracentrifugation; type: physicochemical; details: 1 mg/mL, 20°C; for Oligomeric state in solution: AUC; for Oligomeric state in solution / Frictional ratio f/f0 (average) / Molecular weight estimated by analytical ultracentrifugation (AUC) / Peak proportion: pH 7.5; for Frictional ratio f/f0 (average): average over peaks; for Sedimentation coefficient: Tris 50 mM pH 7.5, NaCl 150 mM, TCEP 0.5 mM, 42,000 rpm, MLLT4-PDZ with excess of E PBM peptide
Procedure: ZO-1-PDZ2 and MLLT4-PDZ were prepared at 1 mg/mL. MLLT4-PDZ was prepared with an excess of protein E PBM peptide. Samples were prepared in Tris 50 mM pH 7.5, NaCl 150 mM, and TCEP 0.5 mM. A sample of 400 μl was loaded into 1.2-cm double-sector cells between two sapphire windows. […] Sedimentation profiles were monitored over time by absorbance measurement at 280 nm and by interferometry. The data were analyzed using the continuous size distribution model c(s) of the Sedfit 16.36 software. All distributions were calculated with a floating frictional ratio f/f0 and a maximum entropy regularization procedure with a confidence level of 0.68. The buffer viscosity (η = 0.01031 Poise), the density (ρ = 1.0059), and the partial specific volume of 0.746 for MLLT4 and 0.736 for Z0-1 were estimated at 20°C from the amino acid sequences at 20°C using the software SEDTERP 3.0.3.^3

ZO-1 PDZ2 = biological target: B3; experiment: MST; […]; PBS tween 20 0.05%; room temperature; […]; duplicate; details: both partners purified
MPP5 PDZ = biological target: T1, MPP5 PDZ; experiment: as above; details: both partners purified
LNX2 PDZ2 = biological target: T2, LNX2 PDZ2; experiment: as above; details: both partners purified
PARD3 PDZ3 = biological target: T4, PARD3 PDZ3 (human, UniProt Q8TEW0 582-685); experiment: as above; details: both partners purified
T4 construct: third PDZ domain of human PARD3, residues 582-685, numbering of the full-length human protein; […]; Labelled on amines with RED-NHS dye for MST; also called PARDD3-3; not shown: His tag, N-terminal, cleaved
T4 sequence (Q8TEW0 582-685): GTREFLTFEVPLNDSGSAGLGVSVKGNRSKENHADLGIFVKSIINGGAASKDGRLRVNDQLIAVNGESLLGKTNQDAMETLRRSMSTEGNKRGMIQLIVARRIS

MLLT4 PDZ = biological target: T3, MLLT4 PDZ; experiment: as above; details: both partners purified
[2] = biological target: the molecule itself; experiment: AUC; sedimentation velocity, ZO-1-PDZ2 at 1 mg/mL; Tris 50 mM pH 7.5, NaCl 150 mM, TCEP 0.5 mM; 20°C, 42,000 rpm

Molecule	Oligomeric state in solution [1]	Frictional ratio f/f0 (average) [1]	Sedimentation coefficient ([1]; peak 1) [S]	Molecular weight estimated by analytical ultracentrifugation (AUC) ([1]; peak 1) [kDa]	Peak proportion ([1]; peak 1) [%]	Sedimentation coefficient ([1]; peak 2) [S]	Molecular weight estimated by analytical ultracentrifugation (AUC) ([1]; peak 2) [kDa]	Peak proportion ([1]; peak 2) [%]	Sedimentation coefficient ([1]; peak 3) [S]	Molecular weight estimated by analytical ultracentrifugation (AUC) ([1]; peak 3) [kDa]	further results
GFP-E last 12 aa (NLNSSRVPDLLV; also: fused to GFP, attachment end not given here)											GFP-tagged protein in bound fraction (GST-PDZ ZO1): detected in all interactions with GST-PDZ domains; GFP-tagged protein in bound fraction (GST-PDZ LNX2): detected in all interactions with GST-PDZ domains; GFP-tagged protein in bound fraction (GST-PDZ MLLT4): detected in all interactions with GST-PDZ domains; GFP-tagged protein in bound fraction (GST-PDZ MPP5): detected in all interactions with GST-PDZ domains; GFP-tagged protein in bound fraction (GST-PDZ PARD3): detected in all interactions with GST-PDZ domains; GFP-tagged protein in bound fraction (GST alone): not detected
B1	mainly monomeric in solution	1.2	0.5	2.8	25	1.4	12	65	2.3	26	Peak proportion ([1]; peak 3): 10%
B2											Kd (ZO-1 PDZ2): 15 µM; Kd (MPP5 PDZ): 30 µM; Kd (LNX2 PDZ2): 289 µM; Kd (PARD3 PDZ3): 341 µM; Kd (MLLT4 PDZ): 569 µM
B3											stoichiometry N [2]: 2 and ~4
B4	one dimeric form and one higher oligomeric state possibly compatible with a tetramer in solution	1.4	2.1	26	49	2.8	40	49	3.7	60	
